Measurements from patent US20170240926 (published 2017).
No end group written: not given here. *: point of attachment. Dansyl = CN(C)c1cccc2c(S(=O)(=O)*)cccc12

target: FTase (protein farnesyltransferase) (UniProt P49354)

Binder	Kd
Dansyl-TKCSLG [dansyl-TKCSLG]	3.4 nM
Dansyl-TKCTMS [dansyl-TKCTMS]	6 nM
Dansyl-TKCAVQ [dansyl-TKCAVQ]	13 nM
Dansyl-TKCYPD [dansyl-TKCYPD]	3.3 nM
Dansyl-TKCNLQ [dansyl-TKCNLQ]	8 nM
Dansyl-TKCSLC (cysteine pairing not given here) [dansyl-TKCSLC]	5 nM
Dansyl-TKCNLT [dansyl-TKCNLT]	3.7 nM
Dansyl-TKCTKF [dansyl-TKCTKF]	6 nM
Dansyl-TKCYVM [dansyl-TKCYVM]	12 nM
Dansyl-TKCCIL (cysteine pairing not given here) [dansyl-TKCCIL]	300 nM
Dansyl-TKCLTS [dansyl-TKCLTS]	5 nM
Dansyl-TKCSIS [dansyl-TKCSIS]	3.4 nM
Dansyl-TKCKIS [dansyl-TKCKIS]	4 nM
Dansyl-TKCVLA [dansyl-TKCVLA]	4.6 nM
Dansyl-TKCTLM [dansyl-TKCTLM]	5.2 nM
Dansyl-TKCLIT [dansyl-TKCLIT]	4.1 nM
Dansyl-TKCCIF (cysteine pairing not given here) [dansyl-TKCCIF]	270 nM
Dansyl-TKCRIS [dansyl-TKCRIS]	12 nM

Binder	Kd
Dansyl-TKCTII [dansyl-TKCTII]	4.2 nM
Dansyl-TKCKIF [dansyl-TKCKIF]	2.5 nM
Dansyl-TKCLVM [dansyl-TKCLVM]	6 nM
Dansyl-TKCSIM [dansyl-TKCSIM]	6 nM
Dansyl-TKCIVA [dansyl-TKCIVA]	5 nM
Dansyl-TKCVVT [dansyl-TKCVVT]	7 nM
Dansyl-TKCLLM [dansyl-TKCLLM]	4.7 nM
Dansyl-TKCFLS [dansyl-TKCFLS]	19 nM
Dansyl-TKCITQ [dansyl-TKCITQ]	3.6 nM
Dansyl-TKCSLM [dansyl-TKCSLM]	8 nM
Dansyl-TKCSFM [dansyl-TKCSFM]	10 nM
Dansyl-TKCTLQ [dansyl-TKCTLQ]	7 nM
Dansyl-TKCVLH [dansyl-TKCVLH]	14 nM
Dansyl-TKCTLA [dansyl-TKCTLA]	4.4 nM
Dansyl-TKCSVS [dansyl-TKCSVS]	2.1 nM
Dansyl-TKCGIM [dansyl-TKCGIM]	3.6 nM
Dansyl-TKCNIM [dansyl-TKCNIM]	5 nM
